Test results reported in patent US20240245771A1 (XUZHOU MEDICAL UNIVERSITY, published 2024).

Biological target: T1, B7H3 target antigen (UniProt Q5ZPR3 29-466, limits assumed)
T1 construct: Control antigen is called 'other biotin-free antigen', which hints that this antigen may be biotinylated; also called B7H3 antigen; B7-H3 antigen
T1 sequence (looked up): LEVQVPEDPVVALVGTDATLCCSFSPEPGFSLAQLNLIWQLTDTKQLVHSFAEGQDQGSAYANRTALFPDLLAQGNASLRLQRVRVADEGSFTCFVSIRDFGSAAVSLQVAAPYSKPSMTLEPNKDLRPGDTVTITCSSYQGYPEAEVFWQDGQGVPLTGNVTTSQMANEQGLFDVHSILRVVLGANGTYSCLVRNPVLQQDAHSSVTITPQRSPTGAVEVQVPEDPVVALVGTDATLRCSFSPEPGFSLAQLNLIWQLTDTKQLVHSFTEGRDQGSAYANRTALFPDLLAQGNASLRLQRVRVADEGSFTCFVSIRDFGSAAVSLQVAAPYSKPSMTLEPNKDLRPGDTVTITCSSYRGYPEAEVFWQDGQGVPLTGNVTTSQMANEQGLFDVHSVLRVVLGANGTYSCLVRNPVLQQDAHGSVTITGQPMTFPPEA
Experiment: Biacore SPR, antibody captured on Protein A chip, antigen flowed, Langmuir fit
Method: The B7-H3 antigen was allowed to flow over the chip surface using a series of concentration gradients. The binding time was 120 s, and the dissociation time was 120 s. After the cycle dissociation was completed, the biochip was washed with glycine-hydrochloric acid (pH=1.5) buffer, the sample injection was performed at 30 μL/min, and regeneration was performed for 30 s. Reaction signals were detected in real time using a Biacore instrument, and thus binding and dissociation curves were obtained.
The data obtained from the experiment were fitted with the Langmuir model using GE software.

Kd: 27.8 nM
B1: purified B7H3-02 scFv protein (prokaryotic expression, pET-22b) (scFv)
scFv: EVQLFQSGGGLVQPGGSLRLSCAASGFTFSSYAMSWVRQAPGKGLEWVSAISGSGGSTYYADSVKGRFTISRDNSKNTLYLQMNSLRAEDTAVYYCARGVGRGFDYWGQGTTVTVSSSGGGSGGGGSGGGGSDIQLTQSPSSLSASVGDRVTITCRASQSISIYLNWYRQQPGKAPKLLIYAASSLQSGVPSRFSGSGSGTDFTLTISSLQPEDFATYFCQQTYSTPPWTFGQGTKVDIK
notes: The Biacore experiment speaks of 'purified B7H3-02 antibodies' captured on a Protein A chip; also called B7H3-02 scFv antibody; B7H3-02 antibody; not shown: His tag implied (detected with His antibodies, pET-22b vector)
